The assay has as its target T1, Recombinant S. cerevisiae PCNA with an His-Tag (S. cerevisiae, UniProt P15873 1-258).
T1 construct: PCNA (proliferating cell nuclear antigen, gene POL30), S. cerevisiae; also called purified PCNA; source: E. coli (pET28c), purified on a HisTrap column
T1 sequence (looked up): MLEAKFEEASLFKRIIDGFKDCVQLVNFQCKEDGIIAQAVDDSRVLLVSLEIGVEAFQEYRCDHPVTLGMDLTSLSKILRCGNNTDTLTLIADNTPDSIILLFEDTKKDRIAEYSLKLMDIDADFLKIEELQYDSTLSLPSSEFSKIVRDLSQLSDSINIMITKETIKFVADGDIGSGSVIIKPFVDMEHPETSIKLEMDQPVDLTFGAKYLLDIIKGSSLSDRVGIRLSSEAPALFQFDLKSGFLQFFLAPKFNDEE
The experiment in a line: ITC; VP-ITC; 20–25 μM PCNA in the cell, 270 μM peptide in the syringe; 30°C; buffer T (20 mM Tris pH 7.5, 50 mM NaCl, 20 mM β-mercaptoethanol); single set of independent binding sites model. The following applies: both partners purified. A general note: ITC needs no label: the signal is the heat of the interaction.

The term Kd denotes the constant that tells how readily two partners part at equilibrium.

B1: pPol32 333–350 (peptide)
peptide: KRLKKQGTLESFFKRKAK
notes: Pol32 (C subunit of DNA polymerase delta), S. cerevisiae, residues 333-350 (the C-terminal end; K is the last residue of Pol32) with the PIP motif QxxLxxFF; also called Pol32 peptide; Pol32 PIP motif peptide; source: synthetic peptide, bought: Genecust, 95% purity
As to B1, the dissociation constant (Kd) was 460 nM and the dH was -4.45 kcal/mol.

B2: pPol31 317–337 (peptide)
peptide: KSLFDKSLESYFNGSNKEILN
notes: Pol31 (B subunit of DNA polymerase delta), S. cerevisiae, residues 317-337 with the proposed motif LxxYF; also called Pol31 peptide; non-canonical Pol31 PIP motif peptide; source: synthetic peptide, bought: Genecust, 95% purity
For B2, the Kd was over 50000 nM.

B3: pMsh6 22–43 (peptide)
peptide: QKKMKQSSLLSFFSKQVPSGTP
notes: Msh6, S. cerevisiae, residues 22-43 with the canonical PIP motif; also called Msh6 peptide; canonical PIP motif of Msh6; source: synthetic peptide, bought: Genecust, 95% purity
Consider B3, for which the Kd turned out to be 310 nM and the dH was -6.4 kcal/mol.

The values above are taken from paper PMC5760103, “The translesion DNA polymerases Pol ζ and Rev1 are activated independently of PCNA ubiquitination upon UV radiation in mutants of DNA polymerase δ” (PLoS Genetics, 2017).
